Source: patent publication US7666414B2, “Methods for treating prostate cancer using modified antibodies to prostate-specific membrane antigen” (Cornell Research Foundation, Inc., priority 2001, dated 2010)
Read-outs that look alike come from different tables or passages of the source.

Legend:
[1] = system: PSMA-positive CWR22 xenografts; test: Efficacy in PSMA-positive CWR22 xenografts; format: in vivo, C.B-17 scid mice; settings: for TGD: dosing interval study, five cycles
Method: (§1) Experiment: Male SCID mice were implanted by serial passage of CWR22 prostate tumor xenograft. […] All treatments were given intravenously. Tumor growth and animal health were continually monitored throughout the study with tumor growth measured every 3 days.
Experiment: Male C.B-17 SCID mice bearing CWR22 xenografts approximately 200 mm^3 in size received IV injections (200 μL constant volume) of the test articles according to the dose and schedule as shown in Table 22.
Male C.B-17 scid mice bearing CWR22 xenografts approximately 200 mm^3 in size received IV injections (200 μL constant volume) of the test articles according to the dose and schedule shown in the Table 23.
The objective of this study was to determine how much the dosing interval could be increased at this dosage before a loss of efficacy in terms of TGD would be observed. […] The growth delays for the other schedules were: q7d, 53.0 days; q21d, 48.0 days; and q28d, 26.9 days. Similar to other studies using the CWR22 xenograft model, no curative responses were observed, with all tumors eventually resuming growth (FIG. 18).
as §1, with “intravenously and on a schedule of every three days for 5 doses.” for “intravenously.”
as §1, with “intravenously and on a schedule of every seven days for 5 doses.” for “intravenously.”

[2] = male mice; for AUC, analyte Total deJ591 / AUC, analyte deJ591-DM1: 0-336 hours
[3] = system: micronucleated polychromatic erythrocytes; test: Mouse micronucleus test; settings: in vivo
[4] = Pharmacokinetics of deJ591 and deJ591-DM1 in cynomolgus monkeys
[5] = single IV deJ591-DM1 10 mg/kg (30 mg/m^2)
[6] = single IV deJ591-DM1 30 mg/kg (90 mg/m^2)
[7] = single IV deJ591-DM1 90 mg/kg (270 mg/m^2)
[8] = study CTBR 57355, deJ591-DM1 6 mg/kg (72 mg/m^2)
[9] = study CTBR 57355, deJ591-DM1 10 mg/kg (120 mg/m^2)
[10] = study CTBR 57355, deJ591-DM1 16 mg/kg ([…]^2)
[11] = study CTBR 57355, deJ591-DM1 30 mg/kg (360 mg/m^2)
[12] = study CTBR 57355, mean over dosages
[13] = study KLA W-171, deJ591-DM1 6 mg/kg (72 mg/m^2)

deJ591-DM1: deJ591 conjugated via SPP disulfide linker to the maytansinoid DM1, DM1/antibody ratio about 3.5
return to normal growth kinetics following the last dose ([1]; 7.25 mg/kg every seven days for 5 doses): approximately 10 days
Tumor Growth Delay ([1]; 7.28 mg/kg (120 μg/kg DM1-equivalents), q3dX5, IV): 27.1 days
Tumor Growth Delay ([1]; 7.28 mg/kg (120 μg/kg DM1-equivalents), qdX5, IV): 19.6 days
tumor growth ([1]; 14.5 mg/kg every seven days for 5 doses): suppression of tumor growth with some reduction from the initial tumor volume
tumor growth ([1]; 14.5 mg/kg, 7 and 14 day dosing interval): apparent block in tumor growth with a resumption of normal growth kinetics approximately 30 days after the last dose
tumor growth ([1]; 14.5 mg/kg, 21 or 28 day dosing interval): slowed growth
Tumor Growth Delay ([1]; 14.56 mg/kg (240 μg/kg DM1-equivalents), q3dX5, IV): 36.7 days
Tumor Growth Delay ([1]; 14.56 mg/kg (240 μg/kg DM1-equivalents), qdX5, IV): 26.9 days
Tumor Growth Delay ([1]; Comparison II, 4.8 mg/kg (90 μg/kg DM1-equivalents), q3dX5): 31.9 days
Tumor Growth Delay ([1]; Comparison II, 6.5 mg/kg (120 μg/kg DM1-equivalents), q3dX5): 37.8 days
Tumor Growth Delay ([1]; Comparison II, 6.5 mg/kg (120 μg/kg DM1-equivalents), q7dX5): 33.9 days
Tumor Growth Delay ([1]; Comparison II, 9.7 mg/kg (180 μg/kg DM1-equivalents), q3dX5): 42.7 days
Tumor Growth Delay ([1]; Comparison II, 12.93 mg/kg (240 μg/kg DM1-equivalents), q3dX5): 46.4 days
Tumor Growth Delay ([1]; Comparison II, 12.93 mg/kg (240 μg/kg DM1-equivalents), q7dX5): 66.8 days
associated toxicity ([1]; all dosages, Comparison I): less for all dosages of deJ591-DM1 relative to maytansine alone
curative effect ([1]; doses and schedules of Comparison I): non-curative
TGD ([1]; 12.93 mg/kg, q7d): 53.0 days
TGD ([1]; 12.93 mg/kg, q14d): 75.7 days
TGD ([1]; 12.93 mg/kg, q21d): 48.0 days
TGD ([1]; 12.93 mg/kg, q28d): 26.9 days
Efficacious dosage in SCID mouse xenografts, DM1-Equivalents received ([1]; mouse, in vivo): ~0.72 mg/m^2
In vivo activity - mouse xenograft model ([1]; reference standard batch): Delays tumor growth
effect on large tumors, 500 to 2000 mm^3 ([1]; second course, 12.93 mg/kg): potent regressions
Tmax, analyte Total deJ591 [2, 5]: 30 min
Tmax, analyte deJ591-DM1 [2, 5]: 30 min
AUC, analyte Total deJ591 [2, 5]: 8920 µg·h/mL
AUC, analyte deJ591-DM1 [2, 5]: 3260 µg·h/mL
Tmax, analyte Total deJ591 [2, 6]: 4.8 min
Tmax, analyte deJ591-DM1 [2, 6]: 4.8 min
AUC, analyte Total deJ591 [2, 6]: 21000 µg·h/mL
AUC, analyte deJ591-DM1 [2, 6]: 5960 µg·h/mL
Tmax, analyte Total deJ591 [2, 7]: 4.8 min
Tmax, analyte deJ591-DM1 [2, 7]: 4.8 min
AUC, analyte Total deJ591 [2, 7]: 62300 µg·h/mL
AUC, analyte deJ591-DM1 [2, 7]: 30600 µg·h/mL
Lowest genotoxic dosage in ICR mice, DM1-Equivalents received [3]: 0.54 mg/m^2
Tmax, analyte Total deJ591 [4, 8]: 60 min
Tmax, analyte deJ591-DM1 [4, 8]: 48 min
AUC, analyte Total deJ591 [4, 8]: 17200 µg·h/mL
AUC, analyte deJ591-DM1 [4, 8]: 6720 µg·h/mL
Tmax, analyte deJ591-DM1 [4, 9]: 36 min
t1/2, analyte Total deJ591 [4, 9]: 200 h
AUC, analyte Total deJ591 [4, 9]: 31700 µg·h/mL
AUC, analyte deJ591-DM1 [4, 9]: 10600 µg·h/mL
Tmax, analyte Total deJ591 [4, 10]: 54 min
Tmax, analyte deJ591-DM1 [4, 10]: 48 min
AUC, analyte Total deJ591 [4, 10]: 44400 µg·h/mL
AUC, analyte deJ591-DM1 [4, 10]: 15600 µg·h/mL
Tmax, analyte deJ591-DM1 [4, 11]: 48 min
AUC, analyte Total deJ591 [4, 11]: 95000 µg·h/mL
AUC, analyte deJ591-DM1 [4, 11]: 33500 µg·h/mL
Tmax, analyte Total deJ591 [4, 12]: 54 min
Tmax, analyte deJ591-DM1 [4, 12]: 42 min
Tmax, analyte Total deJ591 [4, 13]: 300 min
Tmax, analyte deJ591-DM1 [4, 13]: 60 min
AUC, analyte Total deJ591 [4, 13]: 19900 µg·h/mL
AUC, analyte deJ591-DM1 [4, 13]: 5020 µg·h/mL
